Article PMC10397247
Like-named read-outs stand apart in the source and are kept apart here.

T1: P2-AA-1HGe-A
T1 chain: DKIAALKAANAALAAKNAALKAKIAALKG

T2: P2-AA-1HGe-D
T2 chain: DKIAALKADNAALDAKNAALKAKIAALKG

T3: P2-AA-1HGe-M
T3 chain: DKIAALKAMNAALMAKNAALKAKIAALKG

T4: P2-AA-1HGe-Q
T4 chain: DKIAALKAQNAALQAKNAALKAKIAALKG

T5: P2-AA-1HGe-T
T5 chain: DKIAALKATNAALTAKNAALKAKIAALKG

T6: P2-AA
T6 chain: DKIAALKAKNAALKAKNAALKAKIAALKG

T7: 4H2859-bA
T7 chain: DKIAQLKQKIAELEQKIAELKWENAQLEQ

T8: 4H2931-bA
T8 chain: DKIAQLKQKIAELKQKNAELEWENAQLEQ

T9: 4H3041-bA
T9 chain: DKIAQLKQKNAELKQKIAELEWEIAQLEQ

T10: 4H3297-bA
T10 chain: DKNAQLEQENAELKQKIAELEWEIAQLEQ

T11: 4H3364-bA
T11 chain: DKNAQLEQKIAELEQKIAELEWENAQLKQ

T12: 4H3381-bA
T12 chain: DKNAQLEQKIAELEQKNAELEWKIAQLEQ

T13: 4H349-bA
T13 chain: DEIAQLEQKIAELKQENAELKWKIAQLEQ

T14: 4H56-bA
T14 chain: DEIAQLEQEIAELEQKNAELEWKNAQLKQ

T15: 4H730-bA
T15 chain: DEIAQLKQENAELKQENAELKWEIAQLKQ

T16: 4H796-bA
T16 chain: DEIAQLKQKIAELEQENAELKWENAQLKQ

T17: 4H932-bA
T17 chain: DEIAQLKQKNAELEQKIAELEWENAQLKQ

T18: 4H949-bA
T18 chain: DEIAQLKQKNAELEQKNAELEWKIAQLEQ

B1: P1-AA-1HGe-Q (peptide)
chain: DEIAALEAQNAALQAENAALEAEIAALEG
B2: P1-AA-1HGe-R (peptide)
chain: DEIAALEARNAALRAENAALEAEIAALEG
B3: P1-AA-1HGe-S (peptide)
chain: DEIAALEASNAALSAENAALEAEIAALEG
B4: 4H2859-bA (peptide)
chain: DKIAQLKQKIAELEQKIAELKWENAQLEQ

How the values were obtained:
P2-AA-1HGe-A = target: T1, P2-AA-1HGe-A; experiment: two-hybrid library CCmax; details: mean of both orientations;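 further: natural log of median RNA to DNA barcode read ratio; higher means stronger binding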
P2-AA-1HGe-D = target: T2, P2-AA-1HGe-D; experiment: two-hybrid library CCmax; details: mean of both orientations;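 further: natural log of median RNA to DNA barcode read ratio; higher means stronger binding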
P2-AA-1HGe-M = target: T3, P2-AA-1HGe-M; experiment: two-hybrid library CCmax; details: mean of both orientations;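 further: natural log of median RNA to DNA barcode read ratio; higher means stronger binding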
P2-AA-1HGe-Q = target: T4, P2-AA-1HGe-Q; experiment: two-hybrid library CCmax; details: mean of both orientations;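 further: natural log of median RNA to DNA barcode read ratio; higher means stronger binding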
P2-AA-1HGe-T = target: T5, P2-AA-1HGe-T; experiment: two-hybrid library CCmax
P2-AA = target: T6, P2-AA; experiment: two-hybrid library CCmax; details: mean of both orientations
4H2859-bA = target: T7, 4H2859-bA; experiment: two-hybrid library CCNG1
4H2931-bA = target: T8, 4H2931-bA; experiment: two-hybrid library CCNG1
4H3041-bA = target: T9, 4H3041-bA; experiment: two-hybrid library CCNG1
4H3297-bA = target: T10, 4H3297-bA; experiment: two-hybrid library CCNG1
4H3364-bA = target: T11, 4H3364-bA; experiment: two-hybrid library CCNG1
4H3381-bA = target: T12, 4H3381-bA; experiment: two-hybrid library CCNG1
4H349-bA = target: T13, 4H349-bA; experiment: two-hybrid library CCNG1
4H56-bA = target: T14, 4H56-bA; experiment: two-hybrid library CCNG1
4H730-bA = target: T15, 4H730-bA; experiment: two-hybrid library CCNG1
4H796-bA = target: T16, 4H796-bA; experiment: two-hybrid library CCNG1
4H932-bA = target: T17, 4H932-bA; experiment: two-hybrid library CCNG1
4H949-bA = target: T18, 4H949-bA; experiment: two-hybrid library CCNG1

| Binder | interaction score (P2-AA-1HGe-A) | interaction score (P2-AA-1HGe-D) | interaction score (P2-AA-1HGe-M) | interaction score (P2-AA-1HGe-Q) | interaction score (P2-AA-1HGe-T; mean of both orientations) | interaction score (P2-AA) | interaction score (P2-AA-1HGe-T) | interaction score (4H2859-bA) | interaction score (4H2931-bA) | interaction score (4H3041-bA) | interaction score (4H3297-bA) | interaction score (4H3364-bA) | interaction score (4H3381-bA) | interaction score (4H349-bA) | interaction score (4H56-bA) | interaction score (4H730-bA) | interaction score (4H796-bA) | interaction score (4H932-bA) | interaction score (4H949-bA) |
| --- | --- | --- | --- | --- | --- | --- | --- | --- | --- | --- | --- | --- | --- | --- | --- | --- | --- | --- | --- |
| B1 | 2.14 | 1.67 | 2.05 | 2.11 | 2.21 | 1.75 | – | – | – | – | – | – | – | – | – | – | – | – | – |
| B2 | 1.97 | 1.67 | 1.7 | 2.26 | 2.2 | 1.49 | – | – | – | – | – | – | – | – | – | – | – | – | – |
| B3 | 1.81 | 1.63 | 2.01 | 2.06 | – | 2.03 | 2.01 | – | – | – | – | – | – | – | – | – | – | – | – |
| B4 | – | – | – | – | – | – | – | 0.951 | -0.145 | 0.532 | -0.389 | 0.621 | -1.02 | -1.25 | 0.529 | -1.15 | -0.855 | -0.912 | -1.6 |
